{
  "source": "the MegaScale stability set (Tsuboyama et al. 2023)",
  "parents": {"B1": {"name": "2K2A (parent)", "chain": "ELREAFRLYDKEGNGYISTDVMREILAELDETLSSEDLDAMIDEIDADGSGTVDFEEFMGVMT"}},
  "data": [
    {"variants_of": "B1", "test": "folding stability dG (cDNA display proteolysis); higher = more stable", "conditions": "PBS, room temperature", "units": {"folding stability dG": "kcal/mol"}, "values": [
      {"variant": "ELREAFWLYDKEGNGYISTDVMREILAELDETLSSEDLDAMIDEIDADGSGTVDFEEFMGVMT", "note": "[R7W]", "folding stability dG": 1.76},
      {"variant": "ELREAFVLYDKEGNGYISTDVMREILAELDETLSSEDLDAMIDEIDADGSGTVDFEEFMGVMT", "note": "[R7V]", "folding stability dG": 1.62},
      {"variant": "ELREAFSLYDKEGNGYISTDVMREILAELDETLSSEDLDAMIDEIDADGSGTVDFEEFMGVMT", "note": "[R7S]", "folding stability dG": 1.97},
      {"variant": "ELREAFLLYDKEGNGYISTDVMREILAELDETLSSEDLDAMIDEIDADGSGTVDFEEFMGVMT", "note": "[R7L]", "folding stability dG": 1.93},
      {"variant": "ELREAFNLYDKEGNGYISTDVMREILAELDETLSSEDLDAMIDEIDADGSGTVDFEEFMGVMT", "note": "[R7N]", "folding stability dG": 2.06},
      {"variant": "ELREAFILYDKEGNGYISTDVMREILAELDETLSSEDLDAMIDEIDADGSGTVDFEEFMGVMT", "note": "[R7I]", "folding stability dG": 1.93},
      {"variant": "ELREAFALYDKEGNGYISTDVMREILAELDETLSSEDLDAMIDEIDADGSGTVDFEEFMGVMT", "note": "[R7A]", "folding stability dG": 2.09},
      {"variant": "ELREAFQLYDKEGNGYISTDVMREILAELDETLSSEDLDAMIDEIDADGSGTVDFEEFMGVMT", "note": "[R7Q]", "folding stability dG": 1.96},
      {"variant": "ELREAFHLYDKEGNGYISTDVMREILAELDETLSSEDLDAMIDEIDADGSGTVDFEEFMGVMT", "note": "[R7H]", "folding stability dG": 1.72},
      {"variant": "ELREAFELYDKEGNGYISTDVMREILAELDETLSSEDLDAMIDEIDADGSGTVDFEEFMGVMT", "note": "[R7E]", "folding stability dG": 1.8},
      {"variant": "ELREAFGLYDKEGNGYISTDVMREILAELDETLSSEDLDAMIDEIDADGSGTVDFEEFMGVMT", "note": "[R7G]", "folding stability dG": 1.64},
      {"variant": "ELREAFKLYDKEGNGYISTDVMREILAELDETLSSEDLDAMIDEIDADGSGTVDFEEFMGVMT", "note": "[R7K]", "folding stability dG": 2.12},
      {"variant": "ELREAFTLYDKEGNGYISTDVMREILAELDETLSSEDLDAMIDEIDADGSGTVDFEEFMGVMT", "note": "[R7T]", "folding stability dG": 1.75},
      {"variant": "ELREAFFLYDKEGNGYISTDVMREILAELDETLSSEDLDAMIDEIDADGSGTVDFEEFMGVMT", "note": "[R7F]", "folding stability dG": 1.61},
      {"variant": "ELREAFYLYDKEGNGYISTDVMREILAELDETLSSEDLDAMIDEIDADGSGTVDFEEFMGVMT", "note": "[R7Y]", "folding stability dG": 1.67},
      {"variant": "ELREAFMLYDKEGNGYISTDVMREILAELDETLSSEDLDAMIDEIDADGSGTVDFEEFMGVMT", "note": "[R7M]", "folding stability dG": 2.12},
      {"variant": "ELREAFDLYDKEGNGYISTDVMREILAELDETLSSEDLDAMIDEIDADGSGTVDFEEFMGVMT", "note": "[R7D]", "folding stability dG": 1.81},
      {"variant": "ELREAFPLYDKEGNGYISTDVMREILAELDETLSSEDLDAMIDEIDADGSGTVDFEEFMGVMT", "note": "[R7P]", "folding stability dG": 0.375},
      {"variant": "ELREAFCLYDKEGNGYISTDVMREILAELDETLSSEDLDAMIDEIDADGSGTVDFEEFMGVMT", "note": "[R7C]", "folding stability dG": 2.22},
      {"variant": "ELREAPRLYDKEGNGYISTDVMREILAELDETLSSEDLDAMIDEIDADGSGTVDFEEFMGVMT", "note": "[F6P]", "folding stability dG": 0.281},
      {"variant": "ELREAYRLYDKEGNGYISTDVMREILAELDETLSSEDLDAMIDEIDADGSGTVDFEEFMGVMT", "note": "[F6Y]", "folding stability dG": 0.586},
      {"variant": "ELREAIRLYDKEGNGYISTDVMREILAELDETLSSEDLDAMIDEIDADGSGTVDFEEFMGVMT", "note": "[F6I]", "folding stability dG": 0.623},
      {"variant": "ELREATRLYDKEGNGYISTDVMREILAELDETLSSEDLDAMIDEIDADGSGTVDFEEFMGVMT", "note": "[F6T]", "folding stability dG": 0.266},
      {"variant": "ELREAHRLYDKEGNGYISTDVMREILAELDETLSSEDLDAMIDEIDADGSGTVDFEEFMGVMT", "note": "[F6H]", "folding stability dG": 0.31},
      {"variant": "ELREAKRLYDKEGNGYISTDVMREILAELDETLSSEDLDAMIDEIDADGSGTVDFEEFMGVMT", "note": "[F6K]", "folding stability dG": 0.192},
      {"variant": "ELREAMRLYDKEGNGYISTDVMREILAELDETLSSEDLDAMIDEIDADGSGTVDFEEFMGVMT", "note": "[F6M]", "folding stability dG": 0.623},
      {"variant": "ELREAQRLYDKEGNGYISTDVMREILAELDETLSSEDLDAMIDEIDADGSGTVDFEEFMGVMT", "note": "[F6Q]", "folding stability dG": 0.462},
      {"variant": "ELREAVRLYDKEGNGYISTDVMREILAELDETLSSEDLDAMIDEIDADGSGTVDFEEFMGVMT", "note": "[F6V]", "folding stability dG": 0.529},
      {"variant": "ELREAWRLYDKEGNGYISTDVMREILAELDETLSSEDLDAMIDEIDADGSGTVDFEEFMGVMT", "note": "[F6W]", "folding stability dG": 2.18},
      {"variant": "ELREASRLYDKEGNGYISTDVMREILAELDETLSSEDLDAMIDEIDADGSGTVDFEEFMGVMT", "note": "[F6S]", "folding stability dG": 0.268},
      {"variant": "ELREALRLYDKEGNGYISTDVMREILAELDETLSSEDLDAMIDEIDADGSGTVDFEEFMGVMT", "note": "[F6L]", "folding stability dG": 0.489},
      {"variant": "ELREANRLYDKEGNGYISTDVMREILAELDETLSSEDLDAMIDEIDADGSGTVDFEEFMGVMT", "note": "[F6N]", "folding stability dG": 0.361},
      {"variant": "ELREARRLYDKEGNGYISTDVMREILAELDETLSSEDLDAMIDEIDADGSGTVDFEEFMGVMT", "note": "[F6R]", "folding stability dG": 0.468},
      {"variant": "ELREAFRHYDKEGNGYISTDVMREILAELDETLSSEDLDAMIDEIDADGSGTVDFEEFMGVMT", "note": "[L8H]", "folding stability dG": 2.01},
      {"variant": "ELREAFRKYDKEGNGYISTDVMREILAELDETLSSEDLDAMIDEIDADGSGTVDFEEFMGVMT", "note": "[L8K]", "folding stability dG": 2.44},
      {"variant": "ELREAFRIYDKEGNGYISTDVMREILAELDETLSSEDLDAMIDEIDADGSGTVDFEEFMGVMT", "note": "[L8I]", "folding stability dG": 1.8},
      {"variant": "ELREAFRFYDKEGNGYISTDVMREILAELDETLSSEDLDAMIDEIDADGSGTVDFEEFMGVMT", "note": "[L8F]", "folding stability dG": 2.1},
      {"variant": "ELREAFRNYDKEGNGYISTDVMREILAELDETLSSEDLDAMIDEIDADGSGTVDFEEFMGVMT", "note": "[L8N]", "folding stability dG": 1.85},
      {"variant": "ELREAFRMYDKEGNGYISTDVMREILAELDETLSSEDLDAMIDEIDADGSGTVDFEEFMGVMT", "note": "[L8M]", "folding stability dG": 2.05},
      {"variant": "ELREAFRGYDKEGNGYISTDVMREILAELDETLSSEDLDAMIDEIDADGSGTVDFEEFMGVMT", "note": "[L8G]", "folding stability dG": 1.73},
      {"variant": "ELREAFRAYDKEGNGYISTDVMREILAELDETLSSEDLDAMIDEIDADGSGTVDFEEFMGVMT", "note": "[L8A]", "folding stability dG": 2.18},
      {"variant": "ELREAFREYDKEGNGYISTDVMREILAELDETLSSEDLDAMIDEIDADGSGTVDFEEFMGVMT", "note": "[L8E]", "folding stability dG": 1.52},
      {"variant": "ELREAFRDYDKEGNGYISTDVMREILAELDETLSSEDLDAMIDEIDADGSGTVDFEEFMGVMT", "note": "[L8D]", "folding stability dG": 0.997}
    ]}
  ]
}
